The results in this text go back to PMC11602160, “Modulation of UPF1 catalytic activity upon interaction of SARS-CoV-2 Nucleocapsid protein with factors involved in nonsense mediated-mRNA decay”.

In one data set the target is T1, UPF1 (CH-helicase core) (Homo sapiens, UniProt Q92900 115-352+364-925, internal_change).
T1 sequence: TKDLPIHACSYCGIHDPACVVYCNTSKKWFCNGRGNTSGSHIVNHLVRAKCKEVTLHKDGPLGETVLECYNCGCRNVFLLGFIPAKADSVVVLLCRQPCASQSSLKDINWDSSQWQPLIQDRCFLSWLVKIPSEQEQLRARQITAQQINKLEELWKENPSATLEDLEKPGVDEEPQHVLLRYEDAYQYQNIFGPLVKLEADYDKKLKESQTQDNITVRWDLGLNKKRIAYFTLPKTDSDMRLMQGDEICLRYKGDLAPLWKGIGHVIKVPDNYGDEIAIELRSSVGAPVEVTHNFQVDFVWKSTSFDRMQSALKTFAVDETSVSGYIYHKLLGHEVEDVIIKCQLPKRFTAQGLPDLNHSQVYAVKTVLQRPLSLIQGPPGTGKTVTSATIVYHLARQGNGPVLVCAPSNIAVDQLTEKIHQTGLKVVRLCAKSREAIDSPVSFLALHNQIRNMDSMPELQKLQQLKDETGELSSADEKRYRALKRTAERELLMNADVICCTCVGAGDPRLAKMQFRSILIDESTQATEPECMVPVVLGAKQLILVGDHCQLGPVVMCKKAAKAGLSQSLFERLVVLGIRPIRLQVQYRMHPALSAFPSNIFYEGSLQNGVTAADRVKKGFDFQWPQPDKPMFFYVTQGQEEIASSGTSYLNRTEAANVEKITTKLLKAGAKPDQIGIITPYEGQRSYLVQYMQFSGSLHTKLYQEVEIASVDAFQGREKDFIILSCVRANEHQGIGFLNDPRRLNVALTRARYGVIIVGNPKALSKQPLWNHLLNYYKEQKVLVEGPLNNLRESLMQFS
As to the kind of experiment: fluorescence anisotropy; 1 mM Mg2+; Fluorescence anisotropy: 20 mM HEPES pH 7.5, 100 mM NaCl, 1 mM MgCl2, 100 µg/ml BSA, 5 nM RNA, 25 °C, 1 h; one-site fit with Hill slope. SEC conditions not in the material. Conditions: protein: recombinant; tags: His6 or His-GST fusion, cleavable (TEV/3C); label: 5' 6-FAM; single strand.

Data set [1] deals with Nfl (Nucleocapsid full-length) (SARS-CoV-2, UniProt P0DTC9 1-419). The data set is described as above. To be noted: protein: recombinant; tags: His6 or His-GST fusion, cleavable (TEV/3C); chain copies: 2; label: 5' 6-FAM; single strand.

The term Kd denotes a measure of binding affinity in units of concentration. For the molecule UUUUUUUUUUUU (ssRNA) [U12 (12-mer poly-U RNA)], the Kd was about 50 nM with UPF1 (CH-helicase core) and 82 nM in data set [1].
